Test [1] concerns the target mini-procollagen III (human). The test can be described thus: SDS-PAGE in non-reducing against reducing.
Test [2] concerns the target human PCPE-1 (procollagen C-proteinase enhancer protein-1), no tag (human) (UniProt Q15113). The test can be described thus: SPR. Background: Surface plasmon resonance follows binding to a sensor surface in real time, without labels.
Test [3] concerns the target homotrimeric mini-procollagen II (human). Briefly: SDS-PAGE in non-reducing against reducing.
Test [4] addresses α2 chain of mini-procollagen I (human). The test can be described thus: co-purification by the tag of one chain, SDS-PAGE of the BMP-1 cleavage products.

UniProt Q15113, sequence (Q15113 26-449): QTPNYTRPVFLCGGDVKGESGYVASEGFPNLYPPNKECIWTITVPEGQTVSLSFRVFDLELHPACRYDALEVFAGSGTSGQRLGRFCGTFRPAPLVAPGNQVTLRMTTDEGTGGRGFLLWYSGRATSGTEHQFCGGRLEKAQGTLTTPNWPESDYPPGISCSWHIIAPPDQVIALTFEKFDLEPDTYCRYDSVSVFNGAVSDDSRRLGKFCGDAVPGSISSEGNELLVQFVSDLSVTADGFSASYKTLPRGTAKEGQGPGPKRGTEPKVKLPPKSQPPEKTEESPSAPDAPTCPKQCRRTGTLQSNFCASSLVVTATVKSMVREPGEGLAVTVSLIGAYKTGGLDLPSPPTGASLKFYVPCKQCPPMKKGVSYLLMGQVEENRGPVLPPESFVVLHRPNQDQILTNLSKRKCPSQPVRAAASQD

As usually defined, the stoichiometry N is a count of units in the complex or per binding partner. With “mini-procollagen III (domain or fragment)”, the stoichiometry N in test [1] was 3. In addition, in test [2], the KD1 (heterogeneous ligand model) is less than 15 nM and the KD2 (heterogeneous ligand model) was less than 15 nM.
Consider “homotrimeric mini-procollagen II (domain or fragment)”, for which the stoichiometry N in test [3] stood at 3. In test [2], the KD1 (heterogeneous ligand model) was less than 15 nM and the KD2 (heterogeneous ligand model) was less than 15 nM.
Consider “heterotrimeric mini-procollagen I (complex)”, for which, in test [2], the KD1 (heterogeneous ligand model) is less than 15 nM and the KD2 (heterogeneous ligand model) was less than 15 nM.
Consider “α1 chain of mini-procollagen I (domain or fragment)”, for which, in test [4], the stoichiometry N (α1 chains for one α2 chain) turned out to be 2.

The values are drawn from doi:10.1101/2022.11.10.516045.
